Target: T1, FcγRIIIa extracellular domain with C-terminal His tag (human, UniProt P08637 17-208)
T1 construct: extracellular domain; also called FcgRIIIa; 3a; not shown: His tag attached to the C terminus
Experiment: SPR Biacore, captured antibody, FcγR analyte, relative binding
Method: Analysis of interaction between objective antibody and the FcγR was carried out using Biacore T100 (GE Healthcare). HBS-EP+ (GE Healthcare) was used as the running buffer, and the measurement temperature was set to 25° C. Chips produced by immobilizing the antigen peptide by the amine coupling method to a Series S Sencor Chip CM5 (GE Healthcare), or alternatively, chips produced by allowing preliminarily biotinylated antigen peptides to interact with and immobilize onto a Series S Sensor Chip SA (certified) (GE Healthcare) were used. Antibodies of interest were captured onto an antigen peptide-immobilized chip, and allowed to interact to each FcγR diluted with running buffer. To regenerate and repeatedly use the chip, the antibodies captured on the chip were washed off by reacting 10 mM glycine-HCl, pH 1.5.

T1 sequence (P08637 17-208): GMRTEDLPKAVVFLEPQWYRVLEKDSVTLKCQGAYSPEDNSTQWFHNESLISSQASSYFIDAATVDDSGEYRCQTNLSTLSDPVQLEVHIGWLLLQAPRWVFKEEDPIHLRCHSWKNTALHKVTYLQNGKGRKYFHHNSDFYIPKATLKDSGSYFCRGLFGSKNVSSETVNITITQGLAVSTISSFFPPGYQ

B1: GpH7-B3 variant K334_15Y/GpL16-k0 (antibody, human IgG1, kappa)
heavy: not shown
light: DIVMTQSPLSLPVTPGEPASISCQASESLVHSNRNTYLHWYLQKPGQSPQLLIYKVSNRFSGVPDRFSGSGSGTDFTLKISRVEAEDVGVYYCSQNTHVPPTFGQGTKVEIERTVAAPSVFIFPPSDEQLKSGTASVVCLLNNFYPREAKVQWKVDNALQSGNSQESVTEQDSKDSTYSLSSTLTLSKADYEKHKVYACEVTHQGLSSPVTKSFNRGEC
notes: also called Ho Ab K334_15Y
Ho/Con_3a: 181 % of HoCon Ab GpH7-B3/GpL16-k0 (=100)

B2: GpH7-B3 variant K334_16H/GpL16-k0 (antibody, human IgG1, kappa)
heavy: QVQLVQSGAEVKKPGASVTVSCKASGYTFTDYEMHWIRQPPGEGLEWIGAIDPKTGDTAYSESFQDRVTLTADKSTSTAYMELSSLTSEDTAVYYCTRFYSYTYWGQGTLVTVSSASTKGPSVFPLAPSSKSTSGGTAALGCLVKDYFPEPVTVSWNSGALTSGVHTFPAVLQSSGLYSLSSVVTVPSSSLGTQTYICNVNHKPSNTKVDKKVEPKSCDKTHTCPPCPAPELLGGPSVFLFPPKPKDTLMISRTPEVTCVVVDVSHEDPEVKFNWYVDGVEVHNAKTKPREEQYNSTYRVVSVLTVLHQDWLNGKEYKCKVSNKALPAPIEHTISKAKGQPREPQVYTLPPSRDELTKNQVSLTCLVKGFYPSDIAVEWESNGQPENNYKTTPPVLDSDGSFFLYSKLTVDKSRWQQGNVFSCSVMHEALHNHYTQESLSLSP
light: DIVMTQSPLSLPVTPGEPASISCQASESLVHSNRNTYLHWYLQKPGQSPQLLIYKVSNRFSGVPDRFSGSGSGTDFTLKISRVEAEDVGVYYCSQNTHVPPTFGQGTKVEIERTVAAPSVFIFPPSDEQLKSGTASVVCLLNNFYPREAKVQWKVDNALQSGNSQESVTEQDSKDSTYSLSSTLTLSKADYEKHKVYACEVTHQGLSSPVTKSFNRGEC
notes: also called Ho Ab K334_16H
Ho/Con_3a: 153 % of HoCon Ab GpH7-B3/GpL16-k0 (=100)

B3: GpH7-B3 variant S337_10E/GpL16-k0 (antibody, human IgG1, kappa)
heavy: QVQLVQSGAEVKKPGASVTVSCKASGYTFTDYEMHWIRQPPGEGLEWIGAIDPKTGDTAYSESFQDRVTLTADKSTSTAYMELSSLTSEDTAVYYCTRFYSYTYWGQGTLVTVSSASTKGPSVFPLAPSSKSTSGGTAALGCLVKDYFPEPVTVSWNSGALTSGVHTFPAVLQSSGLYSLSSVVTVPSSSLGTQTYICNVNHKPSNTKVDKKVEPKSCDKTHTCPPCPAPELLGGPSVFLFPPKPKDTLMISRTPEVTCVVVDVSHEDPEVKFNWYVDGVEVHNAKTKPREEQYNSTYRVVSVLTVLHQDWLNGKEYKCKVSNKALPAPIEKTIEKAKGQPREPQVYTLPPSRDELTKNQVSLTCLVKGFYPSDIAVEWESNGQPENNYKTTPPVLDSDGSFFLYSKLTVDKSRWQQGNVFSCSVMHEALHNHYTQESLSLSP
light: DIVMTQSPLSLPVTPGEPASISCQASESLVHSNRNTYLHWYLQKPGQSPQLLIYKVSNRFSGVPDRFSGSGSGTDFTLKISRVEAEDVGVYYCSQNTHVPPTFGQGTKVEIERTVAAPSVFIFPPSDEQLKSGTASVVCLLNNFYPREAKVQWKVDNALQSGNSQESVTEQDSKDSTYSLSSTLTLSKADYEKHKVYACEVTHQGLSSPVTKSFNRGEC
notes: also called Ho Ab S337_10E
Ho/Con_3a: 100 % of HoCon Ab GpH7-B3/GpL16-k0 (=100)

B4: GpH7-B3 variant S337_09D/GpL16-k0 (antibody, human IgG1, kappa)
heavy: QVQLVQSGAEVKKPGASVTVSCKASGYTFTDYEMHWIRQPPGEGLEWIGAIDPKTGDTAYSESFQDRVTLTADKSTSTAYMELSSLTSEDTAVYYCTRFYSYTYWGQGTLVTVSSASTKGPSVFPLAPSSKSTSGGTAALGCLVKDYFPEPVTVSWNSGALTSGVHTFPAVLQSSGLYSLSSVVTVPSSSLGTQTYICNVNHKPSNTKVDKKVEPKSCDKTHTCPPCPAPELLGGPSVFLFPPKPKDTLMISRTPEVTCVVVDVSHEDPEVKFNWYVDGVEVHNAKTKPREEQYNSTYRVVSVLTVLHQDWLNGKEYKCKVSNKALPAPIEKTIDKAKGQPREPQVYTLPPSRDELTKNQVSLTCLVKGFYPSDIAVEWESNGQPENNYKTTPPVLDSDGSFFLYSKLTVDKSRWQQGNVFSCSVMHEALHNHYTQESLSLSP
light: DIVMTQSPLSLPVTPGEPASISCQASESLVHSNRNTYLHWYLQKPGQSPQLLIYKVSNRFSGVPDRFSGSGSGTDFTLKISRVEAEDVGVYYCSQNTHVPPTFGQGTKVEIERTVAAPSVFIFPPSDEQLKSGTASVVCLLNNFYPREAKVQWKVDNALQSGNSQESVTEQDSKDSTYSLSSTLTLSKADYEKHKVYACEVTHQGLSSPVTKSFNRGEC
notes: also called Ho Ab S337_09D
Ho/Con_3a: 106 % of HoCon Ab GpH7-B3/GpL16-k0 (=100)

B5: GpH7-B3 variant K334_18N/GpL16-k0 (antibody, human IgG1, kappa)
heavy: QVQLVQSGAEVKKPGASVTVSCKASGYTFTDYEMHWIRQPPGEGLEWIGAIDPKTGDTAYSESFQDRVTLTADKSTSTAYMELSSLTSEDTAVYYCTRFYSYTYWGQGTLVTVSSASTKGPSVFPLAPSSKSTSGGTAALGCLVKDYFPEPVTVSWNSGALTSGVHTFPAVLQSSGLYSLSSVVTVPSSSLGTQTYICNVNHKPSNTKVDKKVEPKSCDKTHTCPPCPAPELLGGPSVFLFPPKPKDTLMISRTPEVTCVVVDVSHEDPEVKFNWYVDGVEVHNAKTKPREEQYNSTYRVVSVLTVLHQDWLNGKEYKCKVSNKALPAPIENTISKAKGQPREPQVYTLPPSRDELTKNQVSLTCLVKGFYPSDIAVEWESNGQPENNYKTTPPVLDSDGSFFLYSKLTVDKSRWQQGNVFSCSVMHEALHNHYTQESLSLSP
light: DIVMTQSPLSLPVTPGEPASISCQASESLVHSNRNTYLHWYLQKPGQSPQLLIYKVSNRFSGVPDRFSGSGSGTDFTLKISRVEAEDVGVYYCSQNTHVPPTFGQGTKVEIERTVAAPSVFIFPPSDEQLKSGTASVVCLLNNFYPREAKVQWKVDNALQSGNSQESVTEQDSKDSTYSLSSTLTLSKADYEKHKVYACEVTHQGLSSPVTKSFNRGEC
notes: also called Ho Ab K334_18N
Ho/Con_3a: 156 % of HoCon Ab GpH7-B3/GpL16-k0 (=100)

B6: GpH7-B3 variant K334_19Q/GpL16-k0 (antibody, human IgG1, kappa)
heavy: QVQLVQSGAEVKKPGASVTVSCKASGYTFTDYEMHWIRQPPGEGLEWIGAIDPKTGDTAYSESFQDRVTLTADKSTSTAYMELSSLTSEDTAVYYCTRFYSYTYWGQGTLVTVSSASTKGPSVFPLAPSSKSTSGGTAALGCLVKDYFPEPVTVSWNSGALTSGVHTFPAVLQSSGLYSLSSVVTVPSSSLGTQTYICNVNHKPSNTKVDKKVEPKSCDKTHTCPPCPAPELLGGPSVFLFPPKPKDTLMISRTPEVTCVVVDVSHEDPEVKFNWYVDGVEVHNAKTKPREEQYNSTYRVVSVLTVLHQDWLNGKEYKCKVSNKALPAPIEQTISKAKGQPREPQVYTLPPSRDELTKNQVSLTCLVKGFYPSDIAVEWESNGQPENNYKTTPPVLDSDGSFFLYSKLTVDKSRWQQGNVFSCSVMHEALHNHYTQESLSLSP
light: DIVMTQSPLSLPVTPGEPASISCQASESLVHSNRNTYLHWYLQKPGQSPQLLIYKVSNRFSGVPDRFSGSGSGTDFTLKISRVEAEDVGVYYCSQNTHVPPTFGQGTKVEIERTVAAPSVFIFPPSDEQLKSGTASVVCLLNNFYPREAKVQWKVDNALQSGNSQESVTEQDSKDSTYSLSSTLTLSKADYEKHKVYACEVTHQGLSSPVTKSFNRGEC
notes: also called Ho Ab K334_19Q
Ho/Con_3a: 150 % of HoCon Ab GpH7-B3/GpL16-k0 (=100)

B7: GpH7-B3 variant S267_02A/GpL16-k0 (antibody, human IgG1, kappa)
heavy: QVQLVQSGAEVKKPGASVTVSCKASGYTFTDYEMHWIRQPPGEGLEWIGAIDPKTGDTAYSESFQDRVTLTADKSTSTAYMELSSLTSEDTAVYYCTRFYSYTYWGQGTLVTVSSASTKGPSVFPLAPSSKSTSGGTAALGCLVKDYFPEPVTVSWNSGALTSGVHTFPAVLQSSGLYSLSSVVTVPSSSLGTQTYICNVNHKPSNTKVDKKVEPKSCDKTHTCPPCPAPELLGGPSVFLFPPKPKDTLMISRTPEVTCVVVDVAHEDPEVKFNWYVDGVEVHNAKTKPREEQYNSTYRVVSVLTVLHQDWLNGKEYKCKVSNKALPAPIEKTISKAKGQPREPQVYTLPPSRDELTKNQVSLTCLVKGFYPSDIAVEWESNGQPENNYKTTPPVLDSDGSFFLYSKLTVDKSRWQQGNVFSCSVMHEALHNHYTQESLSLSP
light: DIVMTQSPLSLPVTPGEPASISCQASESLVHSNRNTYLHWYLQKPGQSPQLLIYKVSNRFSGVPDRFSGSGSGTDFTLKISRVEAEDVGVYYCSQNTHVPPTFGQGTKVEIERTVAAPSVFIFPPSDEQLKSGTASVVCLLNNFYPREAKVQWKVDNALQSGNSQESVTEQDSKDSTYSLSSTLTLSKADYEKHKVYACEVTHQGLSSPVTKSFNRGEC
notes: also called Ho Ab S267_02A
Ho/Con_3a: 145 % of HoCon Ab GpH7-B3/GpL16-k0 (=100)

B8: GpH7-B3 variant S239_09D/GpL16-k0 (antibody, human IgG1, kappa)
heavy: not shown
light: DIVMTQSPLSLPVTPGEPASISCQASESLVHSNRNTYLHWYLQKPGQSPQLLIYKVSNRFSGVPDRFSGSGSGTDFTLKISRVEAEDVGVYYCSQNTHVPPTFGQGTKVEIERTVAAPSVFIFPPSDEQLKSGTASVVCLLNNFYPREAKVQWKVDNALQSGNSQESVTEQDSKDSTYSLSSTLTLSKADYEKHKVYACEVTHQGLSSPVTKSFNRGEC
notes: also called Ho Ab S239_09D
Ho/Con_3a: 192 % of HoCon Ab GpH7-B3/GpL16-k0 (=100)

B9: GpH7-B3 variant S267_09D/GpL16-k0 (antibody, human IgG1, kappa)
heavy: not shown
light: DIVMTQSPLSLPVTPGEPASISCQASESLVHSNRNTYLHWYLQKPGQSPQLLIYKVSNRFSGVPDRFSGSGSGTDFTLKISRVEAEDVGVYYCSQNTHVPPTFGQGTKVEIERTVAAPSVFIFPPSDEQLKSGTASVVCLLNNFYPREAKVQWKVDNALQSGNSQESVTEQDSKDSTYSLSSTLTLSKADYEKHKVYACEVTHQGLSSPVTKSFNRGEC
notes: also called Ho Ab S267_09D
Ho/Con_3a: 160 % of HoCon Ab GpH7-B3/GpL16-k0 (=100)

B10: GpH7-B3 variant T335_07I/GpL16-k0 (antibody, human IgG1, kappa)
heavy: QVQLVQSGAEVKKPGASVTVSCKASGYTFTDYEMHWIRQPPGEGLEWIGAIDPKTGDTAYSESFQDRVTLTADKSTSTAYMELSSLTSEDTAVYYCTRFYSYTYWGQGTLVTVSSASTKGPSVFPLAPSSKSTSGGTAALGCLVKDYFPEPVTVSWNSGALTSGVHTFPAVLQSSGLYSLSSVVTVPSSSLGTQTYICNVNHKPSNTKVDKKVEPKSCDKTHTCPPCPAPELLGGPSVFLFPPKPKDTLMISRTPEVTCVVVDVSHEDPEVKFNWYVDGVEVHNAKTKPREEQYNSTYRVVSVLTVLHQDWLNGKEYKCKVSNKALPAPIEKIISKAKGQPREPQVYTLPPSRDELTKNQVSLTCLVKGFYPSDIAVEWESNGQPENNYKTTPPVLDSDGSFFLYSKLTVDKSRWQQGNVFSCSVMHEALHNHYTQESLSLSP
light: DIVMTQSPLSLPVTPGEPASISCQASESLVHSNRNTYLHWYLQKPGQSPQLLIYKVSNRFSGVPDRFSGSGSGTDFTLKISRVEAEDVGVYYCSQNTHVPPTFGQGTKVEIERTVAAPSVFIFPPSDEQLKSGTASVVCLLNNFYPREAKVQWKVDNALQSGNSQESVTEQDSKDSTYSLSSTLTLSKADYEKHKVYACEVTHQGLSSPVTKSFNRGEC
notes: also called Ho Ab T335_07I
Ho/Con_3a: 107 % of HoCon Ab GpH7-B3/GpL16-k0 (=100)

B11: GpH7-B3 variant Q295_10E/GpL16-k0 (antibody, human IgG1, kappa)
heavy: not shown
light: DIVMTQSPLSLPVTPGEPASISCQASESLVHSNRNTYLHWYLQKPGQSPQLLIYKVSNRFSGVPDRFSGSGSGTDFTLKISRVEAEDVGVYYCSQNTHVPPTFGQGTKVEIERTVAAPSVFIFPPSDEQLKSGTASVVCLLNNFYPREAKVQWKVDNALQSGNSQESVTEQDSKDSTYSLSSTLTLSKADYEKHKVYACEVTHQGLSSPVTKSFNRGEC
notes: also called Ho Ab Q295_10E
Ho/Con_3a: 111 % of HoCon Ab GpH7-B3/GpL16-k0 (=100)

B12: GpH7-B3 variant Q295_14T/GpL16-k0 (antibody, human IgG1, kappa)
heavy: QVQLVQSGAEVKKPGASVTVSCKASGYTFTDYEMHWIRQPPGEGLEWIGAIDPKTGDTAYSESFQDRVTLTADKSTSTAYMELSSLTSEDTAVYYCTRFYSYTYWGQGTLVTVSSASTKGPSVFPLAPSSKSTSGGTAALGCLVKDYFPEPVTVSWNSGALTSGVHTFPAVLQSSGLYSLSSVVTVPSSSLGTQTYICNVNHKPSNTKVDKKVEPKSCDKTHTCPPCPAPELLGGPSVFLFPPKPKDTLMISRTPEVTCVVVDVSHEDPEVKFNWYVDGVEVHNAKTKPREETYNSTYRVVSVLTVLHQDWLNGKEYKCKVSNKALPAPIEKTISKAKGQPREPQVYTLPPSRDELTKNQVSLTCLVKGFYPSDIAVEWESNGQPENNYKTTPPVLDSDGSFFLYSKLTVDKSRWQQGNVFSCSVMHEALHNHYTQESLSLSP
light: DIVMTQSPLSLPVTPGEPASISCQASESLVHSNRNTYLHWYLQKPGQSPQLLIYKVSNRFSGVPDRFSGSGSGTDFTLKISRVEAEDVGVYYCSQNTHVPPTFGQGTKVEIERTVAAPSVFIFPPSDEQLKSGTASVVCLLNNFYPREAKVQWKVDNALQSGNSQESVTEQDSKDSTYSLSSTLTLSKADYEKHKVYACEVTHQGLSSPVTKSFNRGEC
notes: also called Ho Ab Q295_14T
Ho/Con_3a: 108 % of HoCon Ab GpH7-B3/GpL16-k0 (=100)

B13: GpH7-B3 variant T335_10E/GpL16-k0 (antibody, human IgG1, kappa)
heavy: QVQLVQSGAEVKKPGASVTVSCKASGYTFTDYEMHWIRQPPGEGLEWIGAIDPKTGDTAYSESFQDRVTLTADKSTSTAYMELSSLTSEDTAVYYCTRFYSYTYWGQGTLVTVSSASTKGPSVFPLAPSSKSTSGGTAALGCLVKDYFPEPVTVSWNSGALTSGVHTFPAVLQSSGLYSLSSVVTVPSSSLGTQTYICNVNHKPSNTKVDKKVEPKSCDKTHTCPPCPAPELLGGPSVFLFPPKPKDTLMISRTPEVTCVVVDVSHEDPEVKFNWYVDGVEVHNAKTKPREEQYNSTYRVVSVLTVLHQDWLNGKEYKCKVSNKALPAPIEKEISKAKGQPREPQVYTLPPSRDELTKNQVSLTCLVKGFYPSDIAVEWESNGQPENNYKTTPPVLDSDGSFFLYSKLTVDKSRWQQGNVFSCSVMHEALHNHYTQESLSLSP
light: DIVMTQSPLSLPVTPGEPASISCQASESLVHSNRNTYLHWYLQKPGQSPQLLIYKVSNRFSGVPDRFSGSGSGTDFTLKISRVEAEDVGVYYCSQNTHVPPTFGQGTKVEIERTVAAPSVFIFPPSDEQLKSGTASVVCLLNNFYPREAKVQWKVDNALQSGNSQESVTEQDSKDSTYSLSSTLTLSKADYEKHKVYACEVTHQGLSSPVTKSFNRGEC
notes: also called Ho Ab T335_10E
Ho/Con_3a: 102 % of HoCon Ab GpH7-B3/GpL16-k0 (=100)

B14: GpH7-B3 variant Q295_02A/GpL16-k0 (antibody, human IgG1, kappa)
heavy: not shown
light: DIVMTQSPLSLPVTPGEPASISCQASESLVHSNRNTYLHWYLQKPGQSPQLLIYKVSNRFSGVPDRFSGSGSGTDFTLKISRVEAEDVGVYYCSQNTHVPPTFGQGTKVEIERTVAAPSVFIFPPSDEQLKSGTASVVCLLNNFYPREAKVQWKVDNALQSGNSQESVTEQDSKDSTYSLSSTLTLSKADYEKHKVYACEVTHQGLSSPVTKSFNRGEC
notes: also called Ho Ab Q295_02A
Ho/Con_3a: 108 % of HoCon Ab GpH7-B3/GpL16-k0 (=100)

B15: GpH7-B3 variant S298_14T/GpL16-k0 (antibody, human IgG1, kappa)
heavy: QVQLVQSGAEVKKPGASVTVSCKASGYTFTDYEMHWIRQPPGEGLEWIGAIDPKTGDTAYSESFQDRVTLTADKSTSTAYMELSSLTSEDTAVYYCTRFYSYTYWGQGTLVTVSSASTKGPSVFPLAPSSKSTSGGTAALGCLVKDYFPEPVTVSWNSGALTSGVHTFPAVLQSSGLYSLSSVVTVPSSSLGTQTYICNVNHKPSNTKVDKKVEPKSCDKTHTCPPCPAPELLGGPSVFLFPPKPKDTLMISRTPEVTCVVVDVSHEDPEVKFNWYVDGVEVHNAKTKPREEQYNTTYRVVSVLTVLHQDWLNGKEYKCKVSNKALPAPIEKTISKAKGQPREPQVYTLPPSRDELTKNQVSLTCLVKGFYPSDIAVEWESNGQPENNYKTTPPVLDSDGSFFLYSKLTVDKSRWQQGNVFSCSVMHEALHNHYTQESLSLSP
light: DIVMTQSPLSLPVTPGEPASISCQASESLVHSNRNTYLHWYLQKPGQSPQLLIYKVSNRFSGVPDRFSGSGSGTDFTLKISRVEAEDVGVYYCSQNTHVPPTFGQGTKVEIERTVAAPSVFIFPPSDEQLKSGTASVVCLLNNFYPREAKVQWKVDNALQSGNSQESVTEQDSKDSTYSLSSTLTLSKADYEKHKVYACEVTHQGLSSPVTKSFNRGEC
notes: also called Ho Ab S298_14T
Ho/Con_3a: 107 % of HoCon Ab GpH7-B3/GpL16-k0 (=100)

B16: GpH7-B3 variant S337_18N/GpL16-k0 (antibody, human IgG1, kappa)
heavy: not shown
light: DIVMTQSPLSLPVTPGEPASISCQASESLVHSNRNTYLHWYLQKPGQSPQLLIYKVSNRFSGVPDRFSGSGSGTDFTLKISRVEAEDVGVYYCSQNTHVPPTFGQGTKVEIERTVAAPSVFIFPPSDEQLKSGTASVVCLLNNFYPREAKVQWKVDNALQSGNSQESVTEQDSKDSTYSLSSTLTLSKADYEKHKVYACEVTHQGLSSPVTKSFNRGEC
notes: also called Ho Ab S337_18N
Ho/Con_3a: 102 % of HoCon Ab GpH7-B3/GpL16-k0 (=100)

Source: patent US20150344570A1 (published 2015)
